T1: hNFAT1 (Homo sapiens, UniProt Q13469)
T1 construct: contains the coding region for 400-692 amino acid residues of hNFAT 1; expressed in transfected cells; host or cells: yeast strain EGY48/p8op-lacZ
T1 sequence (Q13469 400-692): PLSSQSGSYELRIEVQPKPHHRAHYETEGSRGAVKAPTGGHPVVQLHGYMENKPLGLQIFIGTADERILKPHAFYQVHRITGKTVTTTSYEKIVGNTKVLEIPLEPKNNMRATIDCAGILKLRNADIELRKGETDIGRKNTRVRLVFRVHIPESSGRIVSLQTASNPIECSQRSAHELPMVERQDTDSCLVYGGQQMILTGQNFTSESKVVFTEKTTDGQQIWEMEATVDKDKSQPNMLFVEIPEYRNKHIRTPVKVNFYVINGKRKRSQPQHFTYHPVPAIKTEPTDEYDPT


Experiments:
[1] = target: LacZ (Escherichia coli, UniProt P00722); conditions: LacZ substrate
Chain of LacZ (P00722 whole entry): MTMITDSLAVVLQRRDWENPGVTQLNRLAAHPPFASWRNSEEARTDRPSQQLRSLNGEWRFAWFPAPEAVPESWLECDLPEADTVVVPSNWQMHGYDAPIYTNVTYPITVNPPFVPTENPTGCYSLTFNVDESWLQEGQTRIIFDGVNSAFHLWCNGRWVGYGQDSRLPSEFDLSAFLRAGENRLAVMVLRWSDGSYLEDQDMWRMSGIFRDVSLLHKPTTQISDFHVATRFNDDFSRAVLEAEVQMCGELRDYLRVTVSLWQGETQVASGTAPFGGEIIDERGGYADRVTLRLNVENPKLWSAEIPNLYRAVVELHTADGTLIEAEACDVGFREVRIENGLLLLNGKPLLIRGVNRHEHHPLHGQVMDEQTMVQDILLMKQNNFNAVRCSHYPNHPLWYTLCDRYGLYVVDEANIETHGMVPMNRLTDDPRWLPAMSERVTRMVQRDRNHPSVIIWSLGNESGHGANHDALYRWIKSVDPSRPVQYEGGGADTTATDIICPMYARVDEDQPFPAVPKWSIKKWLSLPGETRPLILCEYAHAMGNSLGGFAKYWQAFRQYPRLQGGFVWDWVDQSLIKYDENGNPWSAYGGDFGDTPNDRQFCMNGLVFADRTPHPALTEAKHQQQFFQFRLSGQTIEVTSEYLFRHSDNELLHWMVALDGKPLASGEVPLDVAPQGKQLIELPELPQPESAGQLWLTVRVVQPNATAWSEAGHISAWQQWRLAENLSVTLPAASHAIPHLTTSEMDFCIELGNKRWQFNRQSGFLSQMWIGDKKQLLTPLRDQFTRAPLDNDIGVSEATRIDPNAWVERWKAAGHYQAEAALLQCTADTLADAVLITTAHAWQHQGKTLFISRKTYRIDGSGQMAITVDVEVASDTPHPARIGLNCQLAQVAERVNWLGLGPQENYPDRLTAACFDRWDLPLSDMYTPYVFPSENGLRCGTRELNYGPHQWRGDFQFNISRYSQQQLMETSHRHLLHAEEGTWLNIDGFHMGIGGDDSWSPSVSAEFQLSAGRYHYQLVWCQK
Description: (1) CPRG is used rather than ONPG. […] In assays SmM (10×Km) is used which we take to be approximately saturating.
Grow yeast cultures overnight. Dilute back to OD 0.05 to 0.1 next day and allow to continue growing. When they have reached an OD of about 1, make a set of dilutions in culture medium. Add 120 ul of each dilution to the wells of a microtitre plate. Start the reaction by addition of 30 ul reaction buffer and measure the initial rate of reaction (kinetic read over 10 minutes).

[2] = system: mNFATp; experiment: yeast two hybrid assay, interaction with mNFATp; type: binding, murine; conditions: colonies, FIG. 11 and FIG. 12
Chain of mNFATp (Q60591 394-576 limits assumed): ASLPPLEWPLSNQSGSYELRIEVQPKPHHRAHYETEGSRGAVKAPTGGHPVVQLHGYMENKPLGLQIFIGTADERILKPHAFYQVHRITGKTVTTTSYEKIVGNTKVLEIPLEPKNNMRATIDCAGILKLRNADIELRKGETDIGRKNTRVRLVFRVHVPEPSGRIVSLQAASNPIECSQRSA
Description: An hNIP45 AD-fusion construct is co-transformed into the yeast host EGY48 (CLONTECH, cat # K1609-1) with the original murine LexA-NFATp bait and reporter, pSH18-34 (CLONTECH, cat# K1609-1). The functional conservation of hNIP45 is assessed by its ability of interacting with the NFATp protein to activate the reporter gene expression. Hodge, M., et al., NF-AT-Driven Interleukin-4 Transcription Potentiated by NIP45, Science, 274:1903 (1996). See, Example VI infra.

[3] = system: HepG2 cells; conditions: overexpression in HepG2 cells; cited from earlier work
[4] = target: T1, hNFAT1; experiment: yeast two hybrid assay, interaction with hNFAT1; type: binding; conditions: colonies, FIG. 11 and FIG. 12
Excerpt: A 879 bp DNA fragment, corresponding to positions 1418-2296 of hNFAT1 nucleic acid sequence (GenBank Accession number U43342), was PCR amplified via standard methods using Clontech human lymph node Marathon Ready cDNA as template. CLONTECH, Palo Alto, Calif. The resulting PCR product was cloned into the bait vector, plexA-BD (CLONTECH). The hybrid construct (plexA-BD-hNFAT1-BD) contains the coding region for 400-692 amino acid residues of hNFAT 1, which corresponds to the DNA binding region of the hNFAT 1 protein. The full length hNIP45H cNDA was cloned into prey vector pB42AD (CLONTECH). This hybrid construct (pB42AD-hNIP45H) contains the entire open reading frame of […].
Yeast strain EGY48/p8op-lacZ (CLONTECH) was transformed with the plexA-BD-hNFAT1-BD plasmid. […] Yeast strain EGY/p8op-lacZ/plexA-BD-hNFAT1-BD was subsequently transformed with pB42AD-hNIP45H prey construct. Transformants from SD/-UHW plates were subsequently tested on a 4-plate test (SD/-UHW, X-gal vs. GR/-UHW, X-gal, and SD/-UHWL vs. GR/-UHWL).

Row | Molecule | Km [1] [µM] | interaction with mNFATp [2] | increase of endogenous IL-4 production [3] [fold] | interaction with hNFAT1 [4]
1 | O=S1(=O)OC(c2ccc(O)c(Cl)c2)(c2ccc(O[C@@H]3O[C@H](CO)[C@H](O)[C@H](O)[C@H]3O)c(Cl)c2)c2ccccc21 (stereo partly drawn) [CPRG, Chlorophenol red-b-D-galacopyranoside] | ~500 |  |  | 
2 | mNIP45: murine NIP45, NF-ATp interacting protein, 412 amino acid residues, SEQ ID NO:4 (protein, listed as Mus musculus) MAEPLRGRGPRSRGGRGARRARGARGRCPRARQSPARLIPDTVLVDLVSDSDEEVLEVADPVEVPVARLPAPAKPEQDSDSDSEGAAEGPAGAPRTLVRRRRRRLLDPGEAPVVPVYSGKVQSSLNLIPDNSSLLKLCPSEPEDEADLTNSGSSPSEDDALPSGSPWRKKLRKKCEKEEKKMEEFPDQDISPLPQPSSRNKSRKHTEALQKLREVNKRLQDLRSCLSPKQHQSPALQSTDDEVVLVEGPVLPQSSRLFTLKIRCRADLVRLPVRMSEPLQNVVDHMANHLGVSPNRILLLFGESELSPTATPSTLKLGVADIIDCVVLASSSEATETSQELRLRVQGKEKHQMLEISLSPDSPLKVLMSHYEEAMGLSGHKLSFFFDGTKLSGKELPADLGLESGDLIEVWG |  | interacts well | 200 | does not interact with hNFAT1 very well
3 | hNIP45: novel human NIP45 polypeptide, 419 amino acid residues, SEQ ID NO:3, IL-4 transcriptional trans-activator (protein, listed as Homo sapiens) MAEPVGKRGRWSGGSGAGRGGRGGWGGRGRRPRAQRSPSRGTLDVVSVDLVTDSDEEILEVATARGAADEVEVEPPEPPGPVASRDNSNSDSEGEDRRPAGPPREPVRRRRRLVLDPGEAPLVPVYSGKVKSSLRLIPDDLSLLKLYPPGDEEEAELADSSGLYHEGSPSPGSPWKTKLRTKDKEEKKKTEFLDLDNSPLSPPSPRTKSRTHTRALKKLSEVNKRLQDLRSCLSPKPPQGQEQQGQEDEVVLVEGPTLPETPRLFPLKIRCRADLVRLPLRMSEPLQSVVDHMATHLGVSPSRILLLFGETELSPTATPRTLKLGVADIIDCVVLTSSPEATETSQQLQLRVQGKEKHQTLEVSLSRDSPLKTLMSHYEEAMGLSGRKLSFFFDGTKLSGRELPADLGMESGDLIEVWG |  |  |  | interacts well

— patent publication US20020028482A1, “NIP45 HUMAN HOMOLOG” (priority 1997, published 2002)
